Test results as given in US20030194402A1.

T1: human lymphotoxin (TNFβ) (human) (UniProt P01374)
T1 sequence (looked up): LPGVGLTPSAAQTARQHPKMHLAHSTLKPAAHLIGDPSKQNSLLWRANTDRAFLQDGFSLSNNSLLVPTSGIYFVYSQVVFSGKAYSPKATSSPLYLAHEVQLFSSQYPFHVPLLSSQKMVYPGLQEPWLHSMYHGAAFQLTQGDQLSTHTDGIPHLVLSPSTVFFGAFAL


Assays:
[1] = molecular target: T1, human lymphotoxin (TNFβ) (human); assay: cell-based or functional assay
[2] = molecular target: human tumor necrosis factor-α (TNFα) (human) (UniProt P01375); assay: cell-based or functional assay
human tumor necrosis factor-α (TNFα) (human), sequence (P01375 77-233): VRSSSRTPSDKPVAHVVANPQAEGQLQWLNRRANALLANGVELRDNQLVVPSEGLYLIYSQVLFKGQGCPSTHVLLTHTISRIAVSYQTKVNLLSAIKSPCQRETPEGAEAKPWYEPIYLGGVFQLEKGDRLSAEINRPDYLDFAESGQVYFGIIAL

p55-sf2 (p55 TNF receptor/IgG1 heavy chain single fusion with truncated light chain JCK), sequence (P19438 other isoform, or with tags, fused parts or gaps): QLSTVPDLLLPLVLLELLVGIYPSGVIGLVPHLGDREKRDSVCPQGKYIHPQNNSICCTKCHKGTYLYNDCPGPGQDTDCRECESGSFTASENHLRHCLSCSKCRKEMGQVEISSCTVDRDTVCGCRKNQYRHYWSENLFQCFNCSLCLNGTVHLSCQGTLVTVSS

Row | Molecule | amount needed for the same degree of TNFβ inhibition, against p75P-sf2 [1] [fold] | IL-6 in supernatant of FS-4 fibroblasts after 18 h; TNF 0.3 ng/ml, antibody 4 µg/ml [2] [ng/mL] | IL-6 in supernatant of FS-4 fibroblasts after 18 h; TNF 1.5 ng/ml, antibody 4 µg/ml [2] [ng/mL] | IL-6 in supernatant of FS-4 fibroblasts after 18 h; TNF 7.5 ng/ml, antibody 4 µg/ml [2] [ng/mL]
1 | p55-sf2 (p55 TNF receptor/IgG1 heavy chain single fusion with truncated light chain JCK) (from UniProt P19438 3-159) (Fc fusion) | 3 |  |  | 
2 | chimeric mouse/human IgG1 anti-platelet mAb (7E3) (antibody, INN chains, looked up, V domains shown, IgG1) VH: EVQLQQSGTVLARPGASVKMSCEASGYTFTNYWMHWVKQRPGQGLEWIGAIYPGNSDTSYIQKFKGKAKLTAVTSTTSVYMELSSLTNEDSAVYYCTLYDGYYVFAYWGQGTLVTVSA VL: EIVLTQSPVTLSVTPGDSVSLSCRASRDISNNLHWFQQTSHESPRLLIKYASQSMSGIPSRFSGSGSGTDFTLSINSVETEDFGMYFCQQTNSWPYTFGGGTKLEIK |  | 1.6 | 1.96 | 2.16
